Measured values reported in patent publication US20220098304A1 (JIANGSU HENGRUI MEDICINE, published 2022).

Molecular target: T1, Human PD-1-His protein (Cat. #10377H08H, Sino Biological) (human, UniProt Q15116 25-167)
T1 construct: Bought protein; also called hPD-1-His; hu PD-1-his; not shown: His tag of the bought protein
Experiment: SPR (Biacore), antibody captured on Protein A chip, PD-1 in flow
From the text: IgG was affinity captured by using a Protein A biosensor chip (Cat. #29127556, GE). Human PD-1 antigen (Cat. #10377H08H, Sino Biological) and Cyno PD-1 antigen (purchased from Sino Biological) flowed across the surface of the chip, and the binding and dissociation curves were obtained by real time detection of PD-1 antibody and antigen PD-1 reaction signals by a Biacore T200 instrument. After the dissociation of each experimental cycle was completed, the biosensor chip was washed and regenerated with 10 mM Glycine-HCl pH 1.5 buffer. The experimental buffer system was 1×HBS-EP buffer solution (Cat #BR-1001-88, GE). After the experiment, GE Biacore T200 Evaluation version 3.0 software was used to fit the data with a (1:1) Langmuir model, and the affinity value was obtained.

T1 sequence (Q15116 25-167 limits assumed): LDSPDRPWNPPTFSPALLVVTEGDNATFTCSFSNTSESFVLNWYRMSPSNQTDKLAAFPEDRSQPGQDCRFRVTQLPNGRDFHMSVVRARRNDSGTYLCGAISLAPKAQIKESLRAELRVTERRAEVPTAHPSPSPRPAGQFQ

Binder | Kd [nM] | koff [s⁻¹] | kon [M⁻¹ s⁻¹]
Hu32a-29.IgG4AA (antibody, V domains shown, Full-length IgG4-AA, kappa) VH: EVQLVQSGAEVKKPGSSVKVSCKASGFTFSDYEIHWVRQAPGQGLEWMGLFDPETGGIVYNQKFKGRVTLTADKSTSTAYMELSSLRSEDTAVYYCTREGYNRDWYFDVWGQGTTVTVSS VL: DIVMTQTPLSLPVTPGEPASISCRSSQSLVHSTGNTYLEWYLQKPGQSPQLLIYKVSNRFSGVPDRFSGSGSGTDFTLKISRVEAEDVGVYYCFQGSHVPYTFGGGTKVEIKR | 7.86 | 0.00062 | 78900
Hu32a-15.IgG4AA (antibody, V domains shown, Full-length IgG4-AA, kappa) VH: EVQLVQSGAEVKKPGSSVKVSCKASGGTFSDYEIHWVRQAPGQGLEWMGLFDPETGGIVYNQKFKGRVTITADKSTSTAYMELSSLRSEDTAVYYCAREGYNRDWYFDVWGQGTTVTVSS VL: DIVMTQTPLSLPVTPGEPASISCRSSQSLVHSTGNTYLEWYLQKPGQSPQLLIYKVSNRFSGVPDRFSGSGSGTDFTLKISRVEAEDVGVYYCFQGSHVPYTFGGGTKVEIKR | 51.4 | 0.00252 | 48900
Hu32a-43.IgG4AA (antibody, V domains shown, Full-length IgG4-AA, kappa) VH: EVQLVQSGAEVKKPGSSVKVSCKASDFTFSDYEIHWVRQAPGQGLEWMGLFDPETGGIVYNQKFKGRVTLTADKSTSTAYMELSSLRSEDTAVYYCTREGYNRDWYFDVWGQGTTVTVSS VL: DIVMTQTPLSLPVTPGEPASISCRSSQSLVHSTGNTYLEWYLQKPGQSPQLLIYKVSNRFSGVPDRFSGSGSGTDFTLKISRVEAEDVGVYYCFQGSHVPYTFGGGTKVEIKR | 8.16 | 0.000685 | 83900
Hu32a-57.IgG4AA (antibody, V domains shown, Full-length IgG4-AA, kappa) VH: EVQLVQSGAEVKKPGSSVKVSCKASGFTFSDYEIHWVRQAPGQGLEWIGLFDPETGGIVYNQKFKGRATLTADKSTSTAYMEFSSLRSEDTAVYYCTREGYNRDWYFDVWGQGTTVTVSS VL: DIVMTQTPLSLPVTPGEPASISCRSSQSLVHSTGNTYLEWYLQKPGQSPQLLIYKVSNRFSGVPDRFSGSGSGTDFTLKISRVEAEDVGVYYCFQGSHVPYTFGGGTKVEIKR | 7.85 | 0.000624 | 79400
Hu23-1.IgG4AA (antibody, Full-length IgG4-AA (S228P, F234A, L235A), kappa) heavy: not shown light: DIVMTQTPLSLPVTPGEPASISCRSSQSLVHSNGNTYLEWYLQKPGQSPQLLIYKVSNRFSGVPDRFSGSGSGTDFTLKISRVEAEDVGVYYCFQGSHVPYTFGGGTKVEIKRTVAAPSVFIFPPSDEQLKSGTASVVCLLNNFYPREAKVQWKVDNALQSGNSQESVTEQDSKDSTYSLSSTLTLSKADYEKHKVYACEVTHQGLSSPVTKSFNRGEC | 3.2 | 0.00011 | 34300
Hu23-7.IgG4AA (antibody, Full-length IgG4-AA, kappa) heavy: not shown light: DGVMTQTPLSLPVTPGEPASISCRSSQSLVHSNGNTYLEWYLQKPGQSPQLLIYKVSNRFSGVPDRFSGSGSGTDFTLKISRVEAEDVGVYYCFQGSHVPYTFGGGTKVEIKRTVAAPSVFIFPPSDEQLKSGTASVVCLLNNFYPREAKVQWKVDNALQSGNSQESVTEQDSKDSTYSLSSTLTLSKADYEKHKVYACEVTHQGLSSPVTKSFNRGEC | 5.97 | 0.000166 | 27700
Hu23-6.IgG4AA (antibody, Full-length IgG4-AA, kappa) heavy: not shown light: DGVMTQTPLSLPVTPGEPASISCRSSQSLVHSNGNTYLEWYLQKPGQSPQLLIYKVSNRFSGVPDRFSGSGSGTDFTLKISRVEAEDVGVYYCFQGSHVPYTFGGGTKVEIKRTVAAPSVFIFPPSDEQLKSGTASVVCLLNNFYPREAKVQWKVDNALQSGNSQESVTEQDSKDSTYSLSSTLTLSKADYEKHKVYACEVTHQGLSSPVTKSFNRGEC | 5.57 | 0.000155 | 27900
Hu23-3.IgG4AA (antibody, Full-length IgG4-AA, kappa) heavy: not shown light: DIVMTQTPLSLPVTPGEPASISCRSSQSLVHSNGNTYLEWYLQKPGQSPQLLIYKVSNRFSGVPDRFSGSGSGTDFTLKISRVEAEDVGVYYCFQGSHVPYTFGGGTKVEIKRTVAAPSVFIFPPSDEQLKSGTASVVCLLNNFYPREAKVQWKVDNALQSGNSQESVTEQDSKDSTYSLSSTLTLSKADYEKHKVYACEVTHQGLSSPVTKSFNRGEC | 5.46 | 0.00016 | 29300
Hu23-2.IgG4AA (antibody, Full-length IgG4-AA, kappa) heavy: not shown light: DIVMTQTPLSLPVTPGEPASISCRSSQSLVHSNGNTYLEWYLQKPGQSPQLLIYKVSNRFSGVPDRFSGSGSGTDFTLKISRVEAEDVGVYYCFQGSHVPYTFGGGTKVEIKRTVAAPSVFIFPPSDEQLKSGTASVVCLLNNFYPREAKVQWKVDNALQSGNSQESVTEQDSKDSTYSLSSTLTLSKADYEKHKVYACEVTHQGLSSPVTKSFNRGEC | 5.86 | 0.000161 | 27400

Second part, the binder after the results:

Kd [nM] | koff [s⁻¹] | kon [M⁻¹ s⁻¹] | Binder
4.61 | 0.000396 | 86000 | Hu32a-71.IgG4AA (antibody, V domains shown, Full-length IgG4-AA, kappa) VH: EVQLVQSGAEVKKPGSSVKVSCKASDFTFTDYEIHWVRQAPGQGLEWIGLFDPETGGIVYNQKFKGRATLTADKSTSTAYMEFSSLRSEDTAVYYCTREGYNRDWYFDVWGQGTTVTVSS VL: DIVMTQTPLSLPVTPGEPASISCRSSQSLVHSTGNTYLEWYLQKPGQSPQLLIYKVSNRFSGVPDRFSGSGSGTDFTLKISRVEAEDVGVYYCFQGSHVPYTFGGGTKVEIKR
2.22 | 0.000161 | 72300 | Hu23-14.IgG4AA (antibody, V domains shown, Full-length IgG4-AA, kappa; also called Hu23LCDR1 (G29V)) VH: EVQLVQSGAEVKKPGSSVKVSCKASGGTFSDYEMHWVRQAPGQGLEWMGLIDPETGGTVYNQKFKDRVTITADKSTSTAYMELSSLRSEDTAVYYCARERFSYYGSTSDWYFDVWGQGTTVTVSS VL: DIVMTQTPLSLPVTPGEPASISCRSSQSLVHSNVNTYLEWYLQKPGQSPQLLIYKVSNRFSGVPDRFSGSGSGTDFTLKISRVEAEDVGVYYCFQGSHVPYTFGGGTKVEIKR
2.02 | 0.00011 | 54500 | Hu23-12.IgG4AA (antibody, V domains shown, Full-length IgG4-AA, kappa; also called Hu23LCDR1 (N28D)) VH: EVQLVQSGAEVKKPGSSVKVSCKASGGTFSDYEMHWVRQAPGQGLEWMGLIDPETGGTVYNQKFKDRVTITADKSTSTAYMELSSLRSEDTAVYYCARERFSYYGSTSDWYFDVWGQGTTVTVSS VL: DIVMTQTPLSLPVTPGEPASISCRSSQSLVHSDGNTYLEWYLQKPGQSPQLLIYKVSNRFSGVPDRFSGSGSGTDFTLKISRVEAEDVGVYYCFQGSHVPYTFGGGTKVEIKR
2.77 | 0.000153 | 55100 | Hu23-10.IgG4AA (antibody, V domains shown, Full-length IgG4-AA, kappa; also called Hu23LCDR1 (N28L)) VH: EVQLVQSGAEVKKPGSSVKVSCKASGGTFSDYEMHWVRQAPGQGLEWMGLIDPETGGTVYNQKFKDRVTITADKSTSTAYMELSSLRSEDTAVYYCARERFSYYGSTSDWYFDVWGQGTTVTVSS VL: DIVMTQTPLSLPVTPGEPASISCRSSQSLVHSLGNTYLEWYLQKPGQSPQLLIYKVSNRFSGVPDRFSGSGSGTDFTLKISRVEAEDVGVYYCFQGSHVPYTFGGGTKVEIKR
3.82 | 0.000114 | 29900 | Hu23-5.IgG4AA (antibody, Full-length IgG4-AA, kappa) heavy: not shown light: DGVMTQTPLSLPVTPGEPASISCRSSQSLVHSNGNTYLEWYLQKPGQSPQLLIYKVSNRFSGVPDRFSGSGSGTDFTLKISRVEAEDVGVYYCFQGSHVPYTFGGGTKVEIKRTVAAPSVFIFPPSDEQLKSGTASVVCLLNNFYPREAKVQWKVDNALQSGNSQESVTEQDSKDSTYSLSSTLTLSKADYEKHKVYACEVTHQGLSSPVTKSFNRGEC
2.15 | 0.000132 | 61600 | Hu23-9.IgG4AA (antibody, V domains shown, Full-length IgG4-AA, kappa; also called Hu23LCDR1 (N28Q)) VH: EVQLVQSGAEVKKPGSSVKVSCKASGGTFSDYEMHWVRQAPGQGLEWMGLIDPETGGTVYNQKFKDRVTITADKSTSTAYMELSSLRSEDTAVYYCARERFSYYGSTSDWYFDVWGQGTTVTVSS VL: DIVMTQTPLSLPVTPGEPASISCRSSQSLVHSQGNTYLEWYLQKPGQSPQLLIYKVSNRFSGVPDRFSGSGSGTDFTLKISRVEAEDVGVYYCFQGSHVPYTFGGGTKVEIKR
3.56 | 0.000147 | 41100 | Hu23-8.IgG4AA (antibody, Full-length IgG4-AA, kappa) heavy: not shown light: DGVMTQTPLSLPVTPGEPASISCRSSQSLVHSNGNTYLEWYLQKPGQSPQLLIYKVSNRFSGVPDRFSGSGSGTDFTLKISRVEAEDVGVYYCFQGSHVPYTFGGGTKVEIKRTVAAPSVFIFPPSDEQLKSGTASVVCLLNNFYPREAKVQWKVDNALQSGNSQESVTEQDSKDSTYSLSSTLTLSKADYEKHKVYACEVTHQGLSSPVTKSFNRGEC
3.39 | 0.000144 | 42400 | Hu23-4.IgG4AA (antibody, Full-length IgG4-AA, kappa) heavy: not shown light: DIVMTQTPLSLPVTPGEPASISCRSSQSLVHSNGNTYLEWYLQKPGQSPQLLIYKVSNRFSGVPDRFSGSGSGTDFTLKISRVEAEDVGVYYCFQGSHVPYTFGGGTKVEIKRTVAAPSVFIFPPSDEQLKSGTASVVCLLNNFYPREAKVQWKVDNALQSGNSQESVTEQDSKDSTYSLSSTLTLSKADYEKHKVYACEVTHQGLSSPVTKSFNRGEC
2.88 | 0.000122 | 42400 | Hu23-13.IgG4AA (antibody, V domains shown, Full-length IgG4-AA, kappa; also called Hu23LCDR1 (G29A)) VH: EVQLVQSGAEVKKPGSSVKVSCKASGGTFSDYEMHWVRQAPGQGLEWMGLIDPETGGTVYNQKFKDRVTITADKSTSTAYMELSSLRSEDTAVYYCARERFSYYGSTSDWYFDVWGQGTTVTVSS VL: DIVMTQTPLSLPVTPGEPASISCRSSQSLVHSNANTYLEWYLQKPGQSPQLLIYKVSNRFSGVPDRFSGSGSGTDFTLKISRVEAEDVGVYYCFQGSHVPYTFGGGTKVEIKR
2.89 | 0.000132 | 45700 | murine antibody M23 (antibody, V domains shown) VH: QVQLQQSGAELVRPGASVTLSCKASGYTFTDYEMHWVKQTPIHGLEWIGLIDPETGGTVYNQKFKDKTILTADKSSSTAYMEFRSLTSEDSAVYHCTRERFSYYGSTSDWYFDVWGTGTTVTVSS VL: DGLMTQTPLSLPVSLGDHASISCRSSQSLVHSNGNTYLEWYLQKPGQSPKLLIYKVSNRFSGVPDRFSGSGSGTDFTLKISRVEAEDLGIYYCFQGSHVPYTFGGGTKLEIK
